Assays:
β10-S-β10 (SARS-CoV-2) [1] = target: β10-S-β10 (SARS-CoV-2) (UniProt P0DTC2); assay: tNLuc assay (β9-G/β10-S-β10); CR3022 dose response with 0-100 µg/mL human IgG, allosteric noncompetitive inhibition model
β10-S (SARS-CoV-2) = β10-S (SARS-CoV-2) (UniProt P0DTC2); assay: tNLuc split-luciferase assay in solution with β9-G; CR3022 dose response, allosteric sigmoidal fit
β10-S-β10 (SARS-CoV-2) [2] = target: β10-S-β10 (SARS-CoV-2) (UniProt P0DTC2); assay: as above

CR3022 (antibody) gave a Kd (β10-S-β10 (SARS-CoV-2) [1]) of 0.22 µg/mL, a Kd (β10-S (SARS-CoV-2)) of 0.42 µg/mL and a Kd (β10-S-β10 (SARS-CoV-2) [2]) of 0.23 µg/mL.
